# Test results reported in patent US20150011567.
# Tests used:
# [1] = tested on: biotinylated H4-derived unphosphorylated peptide TVTAMDVVYALKRQGRT
# [2] = tested on: biotinylated human histone H2B derived peptide KRSRKESYSVYVYKVL
# [3] = tested on: purified human H2A recombinant protein (NEB)
# [4] = tested on: purified human H2B recombinant protein (NEB)
# [5] = tested on: purified human H3 recombinant protein (NEB)
# [6] = biological target: purified human H4 recombinant protein (NEB) (UniProt P62805)
# recombinant GST-WEE1 protein (Invitrogen), sequence (chain, as listed by the source): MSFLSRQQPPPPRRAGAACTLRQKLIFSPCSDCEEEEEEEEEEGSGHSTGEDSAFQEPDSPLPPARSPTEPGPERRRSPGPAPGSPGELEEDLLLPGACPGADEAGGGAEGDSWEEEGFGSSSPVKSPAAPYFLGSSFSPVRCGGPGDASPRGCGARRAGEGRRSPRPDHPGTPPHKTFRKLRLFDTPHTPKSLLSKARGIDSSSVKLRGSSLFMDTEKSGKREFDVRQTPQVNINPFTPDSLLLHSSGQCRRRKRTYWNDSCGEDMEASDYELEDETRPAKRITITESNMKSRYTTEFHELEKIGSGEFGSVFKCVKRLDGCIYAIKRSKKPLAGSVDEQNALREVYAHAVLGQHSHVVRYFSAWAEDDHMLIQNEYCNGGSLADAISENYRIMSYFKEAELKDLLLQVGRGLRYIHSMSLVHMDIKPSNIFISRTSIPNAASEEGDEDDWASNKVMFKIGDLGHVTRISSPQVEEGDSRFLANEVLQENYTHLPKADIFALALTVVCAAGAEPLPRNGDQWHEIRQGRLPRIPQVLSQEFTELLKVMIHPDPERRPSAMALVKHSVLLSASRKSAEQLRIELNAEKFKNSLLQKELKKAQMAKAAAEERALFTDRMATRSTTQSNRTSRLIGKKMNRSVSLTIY
Substance,"in vitro kinase assay on plate-bound peptide, ELISA with pY88-H4 antibodies [1]","Peptide Immunosandwich Assay (PIA), H2B Tyr37-phosphorylation read at 450 nm [2]","in vitro kinase assay, immunoblot with pTyr37-H2B antibody [3]","in vitro kinase assay, immunoblot with pTyr37-H2B antibody [4]","in vitro kinase assay, immunoblot with pTyr37-H2B antibody [5]","in vitro kinase assay, immunoblot with pTyr37-H2B antibody [6]"
purified WEE1 protein (Examples 5 and 7),Incubation of H4 peptide with WEE1 and Ack1 protein resulted in robust H4 Tyr88-phosphorylation,Purified WEE1 exhibited robust H2B Tyr37-phosphorylation,,,,
recombinant GST-WEE1 protein (Invitrogen),,,"failed to phosphorylate other three core histones, H2A, H3 and H4","When purified WEE1 and H2B were incubated, H2B was Tyr37-phosphorylated","failed to phosphorylate other three core histones, H2A, H3 and H4","failed to phosphorylate other three core histones, H2A, H3 and H4"
